This is an account of results in patent US20230280343A1.

Assay [1] concerns the target p300 (UniProt Q09472). Briefly: ELISA, total binding fit, average of three independent trials (FIG. 21). In general terms: An ELISA detects its analyte on a solid surface through an enzyme-linked reagent.
Assay [2] concerns the target p300 (UniProt Q09472). The assay can be described thus: ELISA; ratio of Kd against native HIF1α.

Chain of p300 (Q09472 323-423 limits assumed): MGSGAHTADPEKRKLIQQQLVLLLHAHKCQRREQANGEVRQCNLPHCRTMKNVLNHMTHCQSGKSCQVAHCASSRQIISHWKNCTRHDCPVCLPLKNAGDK

B1: HIF1α-MAP-2 (H-MAP-2) (designed binder)
chain: MRGSPKKKRKVGGGGSHHHHHHHHGSACELAATATATATATATAACGDLAPQMLRELQETNAALQDVRELLRQQVKEITFLKNTLLEIWKAAKEAAKEAAAKIEEQAKTFLDKFNGEELLRALDQVN
As for B1, the Kd with p300 [1] turned out to be 0.0382 nM.

B2: HIF1α-MAP-1 (H-MAP-1) (designed binder)
chain: MRGSHHHHHHGSACELAATATATATATATAACGDLAPQMLRELQETNAALQDVRELLRQQVKEITFLKNTLLEIWKAAKEAAKEAAAKIEEQAKTFLDKFNGEELLRALDQVN
For the molecule B2, in the assay with p300 [2], the fold improvement over native HIF1α was determined as 47 fold. The molecule also gave a Kd with p300 [1] of 0.00808 nM.

As a reminder, the Kd is the constant that tells how readily two partners part at equilibrium. Lower therefore signals a tighter complex.
